Molecular target: ADI-15946 (human)
Assay: BLI

**Q.** How did the Kd turn out when “EBOV GP cleaved (EBOV GPCL) (from UniProt Q05320 33-650) (domain or fragment)” was run?
**A.** Its Kd is < 1 pM.

**Q.** And the koff?
**A.** The koff was < 1e-07 s⁻¹.

Source: paper PMC6402988
